Each block holds one substance with its values, some of them ahead of it.
Key:
[1] = target: 6xHis-tagged cell-wall binding domain of endolysin CD16/50L, wild type (Clostridioides difficile phage ϕHN50 (identical in ϕHN16-1)); assay: SEC; Superdex 75 10/300 GL, 50 mM Tris-HCl (pH 8.0), 500 mM NaCl, 0.5 mL/min; approximately 2.5 mg/mL of each purified 6xHis-CBD variant injected separately; size from calibration with standard proteins
PG-PS complex = assay: co-precipitation (pull-down) with PG-PS complex, SDS-PAGE band quantification; conditions: parent: est. 1.0; read off a plot
[2] = target: CD16/50L CBD wild type fused to SmBit and to LgBit (CBD-SmBit/LgBit, plasmid pWP004) (Clostridioides difficile phage ϕHN50 (identical in ϕHN16-1)); assay: split reporter (BiFC, NanoBiT); BitLuc^opt split luciferase in live C. difficile R20291; CBD-SmBit and CBD-LgBit co-expressed, induced with 4% (wt/vol) xylose for 2 h; Nano-Glo (furimazine) substrate, luminescence read
[3] = target: CD16/50L CBD C234A fused to SmBit and to LgBit; assay: split complementary luciferase assay (SmBit/LgBit) in C. difficile cells; conditions: 4% (wt/vol) xylose for 2 h; furimazine substrate incubated for 5 min; parent: est. 6.0; read off a plot
[4] = target: CD16/50L CBD E239A fused to SmBit and to LgBit; assay: as above; conditions: 4% (wt/vol) xylose for 2 h; furimazine substrate incubated for 5 min; parent: est. 6.0; read off a plot
[5] = target: CD16/50L CBD F248A fused to SmBit and to LgBit; assay: as above; conditions: 4% (wt/vol) xylose for 2 h; furimazine substrate incubated for 5 min; parent: est. 6.0; read off a plot
[6] = target: CD16/50L CBD M260A fused to SmBit and to LgBit; assay: as above; conditions: 4% (wt/vol) xylose for 2 h; furimazine substrate incubated for 5 min; parent: est. 6.0; read off a plot
[7] = target: CD16/50L CBD Q250A fused to SmBit and to LgBit; assay: as above; conditions: 4% (wt/vol) xylose for 2 h; furimazine substrate incubated for 5 min; parent: est. 6.0; read off a plot
[8] = target: CD16/50L CBD W257A fused to SmBit and to LgBit; assay: as above; conditions: 4% (wt/vol) xylose for 2 h; furimazine substrate incubated for 5 min; parent: est. 6.0; read off a plot
[9] = target: CD16/50L CBD Y202A fused to SmBit and to LgBit; assay: as above; conditions: 4% (wt/vol) xylose for 2 h; furimazine substrate incubated for 5 min; parent: est. 6.0; read off a plot
[10] = target: CD16/50L CBD (Y202A, W257A) fused to SmBit and to LgBit; assay: as above; conditions: 4% (wt/vol) xylose for 2 h; furimazine substrate incubated for 5 min; parent: est. 6.0; read off a plot

stoichiometry N [1]: 2
Substance: 6xHis-tagged cell-wall binding domain of endolysin CD16/50L, wild type (domain or fragment)

Substance: 6xHis-tagged cell-wall binding domain of endolysin CD16/50L, wild type W257A
ratio to parent (PG-PS complex): 0.35

Substance: 6xHis-tagged cell-wall binding domain of endolysin CD16/50L, wild type Y202A; W257A
ratio to parent (PG-PS complex): 0.47

fold increase of the luciferase signal over the single-fragment controls [2]: < 300 fold
Substance: CD16/50L CBD wild type fused to SmBit and to LgBit (CBD-SmBit/LgBit, plasmid pWP004) (domain or fragment)

Substance: CD16/50L CBD wild type fused to SmBit and to LgBit (CBD-SmBit/LgBit, plasmid pWP004) C234A
response [3]: 6 log RLU

Substance: CD16/50L CBD wild type fused to SmBit and to LgBit (CBD-SmBit/LgBit, plasmid pWP004) E239A
response [4]: 6.1 log RLU

Substance: CD16/50L CBD wild type fused to SmBit and to LgBit (CBD-SmBit/LgBit, plasmid pWP004) F248A
response [5]: 6 log RLU

Substance: CD16/50L CBD wild type fused to SmBit and to LgBit (CBD-SmBit/LgBit, plasmid pWP004) M260A
response [6]: 6 log RLU

Substance: CD16/50L CBD wild type fused to SmBit and to LgBit (CBD-SmBit/LgBit, plasmid pWP004) Q250A
response [7]: 6 log RLU

Substance: CD16/50L CBD wild type fused to SmBit and to LgBit (CBD-SmBit/LgBit, plasmid pWP004) W257A
response [8]: 4.9 log RLU

Substance: CD16/50L CBD wild type fused to SmBit and to LgBit (CBD-SmBit/LgBit, plasmid pWP004) Y202A
response [9]: 5.9 log RLU

Substance: CD16/50L CBD wild type fused to SmBit and to LgBit (CBD-SmBit/LgBit, plasmid pWP004) Y202A; W257A
response [10]: 3.5 log RLU

Reference: publication PMC9045149
